Source: patent US20250290928A1, “METHOD, KIT AND DEVICE FOR DETECTING EXTRACELLULAR VESICLES” (priority 2022, published 2025)
No end group written: not given here. *: point of attachment. 5FAM = O=C1OC2(c3ccc(O)cc3Oc3cc(O)ccc32)c2ccc(C(=O)*)cc21; TF3 = Tide Fluor 3, fluorescent dye; TQ2 = quencher; TQ3 = quencher

Columns and labels:
[1] = target: T1, MMP14 in the MDA-MB-231-derived extracellular vesicles (Homo sapiens, UniProt P50281); experiment: Evaluation of MMP14 activity of MDA-MB-231-derived extracellular vesicles with 96-well plate; assay type: biochemical
T1 construct: in terms of intact MMP14 with a molecular weight of 70 kDa
Protocol: A relative fluorescence unit difference ΔRFU was calculated by subtracting the measured value of the sample for BG measurement from the measured value of each of the samples.
The concentration of the solution is 41.7 μg/mL. The concentration of the solution was set to x1, and 2-fold serial dilution was performed to prepare standard samples with six concentrations.
50 μL of the MMP14 detection solution was added to 50 μL of each of the samples, a reaction was performed at 37° C., and MMP14 activity was evaluated.
The concentration of the solution is 10 μg/mL.
50 μL of each of the MMP14 detection solutions was added to 50 μL of each of the samples, a reaction was performed at 37° C., and MMP14 activity was evaluated. […]
The concentration of the solution is 20 μg/mL. The concentration of the solution was set to x1, and 3-fold serial dilution was performed to prepare standard samples with three concentrations.
The concentration of the solution is 8 μg/mL.
50 μL of each of the MMP14 detection solutions was added to 50 μL of the sample, a reaction was performed at 37° C., and MMP14 activity was evaluated. […]
50 μL of the MMP14 detection solution was added to 50 μL of each of the samples, a reaction was performed at 30° C., and MMP14 activity was evaluated.
The MMP14 activity of the extracellular vesicles was evaluated with a 96-well plate (137101). A fluorescence intensity was measured with a fluorescence plate reader (Synergy) at 30° C. every 5 minutes for 2 hours. For measurement wavelengths, an excitation wavelength of 545±20 nm and a fluorescence wavelength of 588±20 nm were used. A relative fluorescence unit difference (ΔRFU) was calculated by subtracting the measured value of the sample for BG measurement from the measured value of each of the samples.
50 μL of each of the MMP14 detection solutions was added to 50 μL of each of the samples, a reaction was performed at 30° C., and MMP14 activity was evaluated.

[2] = target: T1, MMP14 in the MDA-MB-231-derived extracellular vesicles; experiment: Digital detection of MDA-MB-231-derived extracellular vesicles through MMP14 activity in wells (microcompartments); assay type: biochemical; conditions: for Expected value λ / Number of positives / Positive ratio: reporter 5 μM, 30° C.
Protocol: The concentration of the solution is 6.7 μg/mL.
100 μL of the MMP14 detection solution was added to 100 μL of the sample to provide a reaction solution for wells. […] 100 μL of 200 μL of the prepared reaction solution for wells was used in the measurement of MMP14 activity with a 96-well plate.
Next, the wells were filled with the reaction solution by leaving the well array 200 to stand under reduced pressure to degas the space 205. After that, the space 205 was fed with hydrophobic solvents to be sealed. Fluorinated oils AsahiKlin AE-3000 (manufactured by AGC Inc.) and Fomblin Y-25 (manufactured by Solvay S.A.) were used as the hydrophobic solvents. A fluorinated oil Simoa (trademark) SR-X Sealing Oil: 102767 (manufactured by Quanterix Corporation) was further used as another hydrophobic solvent.
Well diameter: 4.25 μm Well depth: 3.25 μm Well capacity: 50 fL Number of wells in array: 239,000 Array range: 3 mm×4 mm
The concentration of the solution is 20 μg/mL. […] The concentration of the solution was set to x1, and 10-fold serial dilution was performed to prepare standard samples with five concentrations.
Next, the wells were filled with the reaction solution by leaving the well array 200 to stand under reduced pressure to degas the space 205. After that, the space 205 was fed with hydrophobic solvents to be sealed.
The concentration of the solution is 20 μg/mL. […] The concentration of the solution was set to x1, and 3-fold serial dilution was performed to prepare standard samples with three concentrations.
The concentration of the solution is 20 μg/mL. […] The concentration of the solution was set to x1, and 2-fold serial dilution was performed to prepare standard samples with four concentrations.
The concentration of the solution is 5 μg/mL.
50 μL of the MMP14 detection solution was added to 50 μL of the sample to provide a reaction solution for wells.
50 μL of each of the MMP14 detection solutions was added to 50 μL of the sample to provide a reaction solution for wells.
The concentration of the solution is 6.7 µg/mL.

[3] = Example 42, EV 2.5 μg/mL, 4 hr, TRITC filter
[4] = Example 42, EV 2.5 μg/mL, 24 hr, TRITC filter
[5] = Example 37, EV 5 μg/mL, reporter 5 μM, buffer (4)
[6] = MP, 1.25 μM with 5 μM Custom #2TF3
[7] = MP, 2.5 μM with 2.5 μM Custom #2TF3
[8] = Example 38, 4 hr, at a concentration of x1, 50 fL
[9] = Example 38, 24 hr, at a concentration of x1, 50 fL
[10] = Example 38, EV 2.5 μg/mL, 24 hr

Substance: MCA-Pro-Leu-Ala-Cys(p-OMeBz)-Trp-Ala-Arg(Dpa)-NH2 [MMP-14 Substrate I]
- detection of MMP14 activity (fluorescence intensity increased with the reaction time) ([1]; Example 3, EV 5 μg/mL, reporter 10, 5 or 2.5 μM, 37° C., 2 hours): MMP14 activity was able to be detected

Substance: TF3-GGPLGLAGGK(TQ3) [Custom #2TF3]
- Fluorescence change after 2 hours of reaction at 30° C. ([1]; Example 41, EV 5 μg/mL, reporter 5 μM, buffer (4), excitation 545±20 nm, fluorescence 588±20 nm): 3,791 ΔRFU
- Fluorescence change after 2 hours of reaction at 30° C. ([1]; MP, 2.5 μM Custom #2TF3 with 2.5 μM Custom #11): 313 ΔRFU
- Fluorescence change after 2 hours of reaction at 30° C. ([1]; MP, 2.5 μM Custom #2TF3 with 2.5 μM Custom #12): 319 ΔRFU
- Fluorescence change after 2 hours of reaction at 30° C. ([1]; MP, 2.5 μM Custom #2TF3 with 2.5 μM Custom #13): 452 ΔRFU
- Fluorescence change after 2 hours of reaction at 30° C. ([1]; MP, 2.5 μM Custom #2TF3 with 2.5 μM Custom #14): 397 ΔRFU
- Fluorescence change after 2 hours of reaction at 30° C. ([1]; MP, 2.5 μM Custom #2TF3 with 2.5 μM Custom #15): 551 ΔRFU
- Fluorescence change after 2 hours of reaction at 30° C. ([1]; MP, 2.5 μM Custom #2TF3 with 2.5 μM Custom #16): 1,085 ΔRFU
- Fluorescence change after 2 hours of reaction at 30° C. ([1]; MP, 5 μM Custom #2TF3 with 1.25 μM Custom #11): 772 ΔRFU
- Fluorescence change after 2 hours of reaction at 30° C. ([1]; MP, 5 μM Custom #2TF3 with 1.25 μM Custom #12): 618 ΔRFU
- Fluorescence change after 2 hours of reaction at 30° C. ([1]; MP, 5 μM Custom #2TF3 with 1.25 μM Custom #13): 814 ΔRFU
- Fluorescence change after 2 hours of reaction at 30° C. ([1]; MP, 5 μM Custom #2TF3 with 1.25 μM Custom #14): 714 ΔRFU
- Fluorescence change after 2 hours of reaction at 30° C. ([1]; MP, 5 μM Custom #2TF3 with 1.25 μM Custom #15): 1,023 ΔRFU
- Fluorescence change after 2 hours of reaction at 30° C. ([1]; MP, 5 μM Custom #2TF3 with 1.25 μM Custom #16): 1,857 ΔRFU
- Expected value λ [2, 3]: 0.1432
- Number of positives [2, 3]: 3,746
- Positive ratio [2, 3]: 0.1334
- Expected value λ [2, 4]: 0.1447
- Number of positives [2, 4]: 3,783
- Positive ratio [2, 4]: 0.1347
- Expected value λ (×1) ([2]; single reporter, reaction 4 hr, at EV concentration x1): 0.5727
- Extracellular vesicle concentration ([2]; single reporter, reaction 4 hr, at x1, from λ (×1) and 50 fL microcompartment): 1.1454e+10 mL⁻¹
- Expected value λ (×1) ([2]; single reporter, reaction 24 hr, at EV concentration x1): 0.5788
- Extracellular vesicle concentration ([2]; single reporter, reaction 24 hr, at x1, from λ (×1) and 50 fL microcompartment): 1.1576e+10 mL⁻¹

Substance: TQ2-DLPAGLQARK(5-FAM) (TQ2-DLPAGLQARK(5FAM)) [Custom #14]
- Fluorescence change after 2 hours of reaction at 30° C. [1, 5]: 34,878 ΔRFU
- Fluorescence change after 2 hours of reaction at 30° C. [1, 6]: 9,504 ΔRFU
- Fluorescence change after 2 hours of reaction at 30° C. [1, 7]: 14,104 ΔRFU
- Expected value λ (×1) ([2]; Example 38, 4 hr): 0.9841
- Extracellular vesicle concentration [2, 8]: 1.968e+10 mL⁻¹
- Expected value λ (×1) ([2]; Example 38, 24 hr): 1.5709
- Extracellular vesicle concentration [2, 9]: 3.142e+10 mL⁻¹
- Expected value λ ([2]; Example 38, EV 2.5 μg/mL, 4 hr): 0.246
- Number of positives ([2]; Example 38, EV 2.5 μg/mL, 4 hr): 6,120
- Positive ratio ([2]; Example 38, EV 2.5 μg/mL, 4 hr): 0.2181
- Expected value λ [2, 10]: 0.3927
- Number of positives [2, 10]: 9,120
- Positive ratio [2, 10]: 0.3248

Substance: TQ2-FMPLGLRGIK(5-FAM) (TQ2-FMPLGLRGIK(5FAM)) [Custom #12]
- Fluorescence change after 2 hours of reaction at 30° C. [1, 5]: 32,801 ΔRFU
- Fluorescence change after 2 hours of reaction at 30° C. [1, 6]: 13,343 ΔRFU
- Fluorescence change after 2 hours of reaction at 30° C. [1, 7]: 19,102 ΔRFU
- Expected value λ (×1) ([2]; Example 38, 4 hr): 0.5189
- Extracellular vesicle concentration [2, 8]: 1.0377e+10 mL⁻¹
- Expected value λ (×1) ([2]; Example 38, 24 hr): 1.232
- Extracellular vesicle concentration [2, 9]: 2.464e+10 mL⁻¹
- Expected value λ ([2]; Example 38, EV 2.5 μg/mL, 4 hr): 0.1297
- Number of positives ([2]; Example 38, EV 2.5 μg/mL, 4 hr): 3,416
- Positive ratio ([2]; Example 38, EV 2.5 μg/mL, 4 hr): 0.1216
- Expected value λ [2, 10]: 0.308
- Number of positives [2, 10]: 7,423
- Positive ratio [2, 10]: 0.2651

Substance: TQ2-LAPLGLQRRK(5-FAM) (TQ2-LAPLGLQRRK(5FAM)) [Custom #11]
- Fluorescence change after 2 hours of reaction at 30° C. [1, 5]: 33,665 ΔRFU
- Fluorescence change after 2 hours of reaction at 30° C. [1, 6]: 12,156 ΔRFU
- Fluorescence change after 2 hours of reaction at 30° C. [1, 7]: 18,065 ΔRFU
- Expected value λ (×1) ([2]; Example 38, 4 hr): 0.5433
- Extracellular vesicle concentration [2, 8]: 1.087e+10 mL⁻¹
- Expected value λ (×1) ([2]; Example 38, 24 hr): 1.166
- Extracellular vesicle concentration [2, 9]: 2.3319e+10 mL⁻¹
- Expected value λ ([2]; Example 38, EV 2.5 μg/mL, 4 hr): 0.1358
- Number of positives ([2]; Example 38, EV 2.5 μg/mL, 4 hr): 3,566
- Positive ratio ([2]; Example 38, EV 2.5 μg/mL, 4 hr): 0.127
- Expected value λ [2, 10]: 0.2915
- Number of positives [2, 10]: 7,100
- Positive ratio [2, 10]: 0.2529

Substance: TQ2-WPHGSLQAAK(5-FAM) (TQ2-WPHGSLQAAK(5FAM)) [Custom #16]
- Fluorescence change after 2 hours of reaction at 30° C. [1, 5]: 4,424 ΔRFU
- Fluorescence change after 2 hours of reaction at 30° C. [1, 6]: 852 ΔRFU
- Fluorescence change after 2 hours of reaction at 30° C. [1, 7]: 1,489 ΔRFU
- Expected value λ (×1) ([2]; Example 38, 4 hr): 0.06766
- Extracellular vesicle concentration [2, 8]: 1.353e+09 mL⁻¹
- Expected value λ (×1) ([2]; Example 38, 24 hr): 0.3923
- Extracellular vesicle concentration [2, 9]: 7.845e+09 mL⁻¹
- Expected value λ ([2]; Example 38, EV 2.5 μg/mL, 4 hr): 0.01692
- Number of positives ([2]; Example 38, EV 2.5 μg/mL, 4 hr): 471
- Positive ratio ([2]; Example 38, EV 2.5 μg/mL, 4 hr): 0.01677
- Expected value λ [2, 10]: 0.09807
- Number of positives [2, 10]: 2,623
- Positive ratio [2, 10]: 0.09341
